Assay results from article PMC3407216.

Experiments:
[1] = target: Matrix metalloproteinase-2 (human (endogenous in tumor cells)) (UniProt P08253)
[2] = target: MMP-2–cleaved fibronectin (human)

αvβ3 integrin, sequence (P05106 whole entry, looked up): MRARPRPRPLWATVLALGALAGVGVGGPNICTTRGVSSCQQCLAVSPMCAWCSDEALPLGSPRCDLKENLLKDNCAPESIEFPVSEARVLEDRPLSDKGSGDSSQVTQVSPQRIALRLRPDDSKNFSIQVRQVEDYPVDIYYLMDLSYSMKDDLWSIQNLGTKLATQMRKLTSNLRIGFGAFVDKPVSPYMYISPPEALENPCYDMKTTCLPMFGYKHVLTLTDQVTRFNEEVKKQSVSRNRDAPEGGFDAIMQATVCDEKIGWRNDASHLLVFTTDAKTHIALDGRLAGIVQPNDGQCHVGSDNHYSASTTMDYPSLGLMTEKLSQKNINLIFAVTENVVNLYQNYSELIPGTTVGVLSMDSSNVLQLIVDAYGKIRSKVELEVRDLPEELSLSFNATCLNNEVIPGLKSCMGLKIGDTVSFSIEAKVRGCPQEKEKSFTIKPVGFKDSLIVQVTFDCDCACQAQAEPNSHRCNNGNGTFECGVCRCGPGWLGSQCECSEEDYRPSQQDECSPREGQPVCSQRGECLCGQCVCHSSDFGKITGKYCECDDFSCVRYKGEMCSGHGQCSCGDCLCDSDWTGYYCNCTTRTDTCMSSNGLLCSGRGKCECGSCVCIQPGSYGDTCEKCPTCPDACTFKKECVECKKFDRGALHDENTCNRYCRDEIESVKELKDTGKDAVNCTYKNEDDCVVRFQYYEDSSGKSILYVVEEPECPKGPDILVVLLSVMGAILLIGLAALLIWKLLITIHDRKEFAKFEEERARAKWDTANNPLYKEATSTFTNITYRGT
UniProt P08253, sequence (P08253 30-660): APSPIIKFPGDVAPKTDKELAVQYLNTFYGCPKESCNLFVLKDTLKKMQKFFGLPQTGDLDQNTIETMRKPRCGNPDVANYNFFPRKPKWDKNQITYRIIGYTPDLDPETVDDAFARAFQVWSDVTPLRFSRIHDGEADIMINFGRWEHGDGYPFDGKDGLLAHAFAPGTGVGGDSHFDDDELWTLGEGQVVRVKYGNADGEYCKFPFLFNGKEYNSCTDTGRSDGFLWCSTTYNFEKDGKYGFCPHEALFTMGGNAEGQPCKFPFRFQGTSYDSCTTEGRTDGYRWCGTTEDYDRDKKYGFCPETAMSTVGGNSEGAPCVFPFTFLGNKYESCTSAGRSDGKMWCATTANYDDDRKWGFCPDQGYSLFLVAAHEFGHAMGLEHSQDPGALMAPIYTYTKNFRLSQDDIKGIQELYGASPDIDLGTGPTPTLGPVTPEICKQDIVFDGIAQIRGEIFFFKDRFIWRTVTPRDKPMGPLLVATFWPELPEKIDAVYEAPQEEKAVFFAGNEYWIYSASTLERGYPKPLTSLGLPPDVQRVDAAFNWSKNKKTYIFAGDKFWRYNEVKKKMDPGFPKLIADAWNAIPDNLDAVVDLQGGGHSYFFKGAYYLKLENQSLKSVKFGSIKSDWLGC

A static adhesion of fluorescently stained A375 cells to wells coated with APMA-activated recombinant human MMP-2, compared with cells blocked with RGD peptides [1] of over 59% and an adhesion of M21 melanoma cells (30 min) to plates coated with MMP-2–cleaved fibronectin compared with full-length fibronectin; no obvious changes with M21-L cells that lack αvβ3 integrin [2] of over 34% were found for “αvβ3 integrin (from UniProt P05106 27-788) (receptor)” in this work.
